Target: endogenous tau of wild-type mouse primary cortical neurons, P10637
Sequence (P10637 other isoform, or with tags, fused parts or gaps): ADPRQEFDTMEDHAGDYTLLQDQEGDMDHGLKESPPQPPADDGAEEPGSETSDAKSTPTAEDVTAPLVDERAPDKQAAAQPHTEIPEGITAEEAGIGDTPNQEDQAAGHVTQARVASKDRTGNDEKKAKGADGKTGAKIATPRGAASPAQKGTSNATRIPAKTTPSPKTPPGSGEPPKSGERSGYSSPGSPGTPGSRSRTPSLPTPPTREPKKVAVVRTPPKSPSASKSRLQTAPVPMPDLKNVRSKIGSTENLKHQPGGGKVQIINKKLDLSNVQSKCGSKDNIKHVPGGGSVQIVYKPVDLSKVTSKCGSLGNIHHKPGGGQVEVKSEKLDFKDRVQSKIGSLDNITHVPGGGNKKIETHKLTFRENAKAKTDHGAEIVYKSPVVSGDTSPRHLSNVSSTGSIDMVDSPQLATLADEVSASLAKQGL

B1: caspase 3 (activated, cleaved caspase 3) of mouse primary cortical neurons (protein)
chain: SGIYLDSSYKMDYPEMGICIIINNKNFHKSTGMSSRSGTDVDAANLRETFMGLKYQVRNKNDLTREDILELMDSVSKEDHSKRSSFVCVILSHGDEGVIYGTNGPVELKKLTSFFRGDYCRSLTGKPKLFIIQACRGTELDCGIETDSGTDEEMACQKIPVEADFLYAYSTAPGYYSWRNSKDGSWFIQSLCSMLKLYAHKLEFMHILTRVNRKVATEFESFSLDSTFHAKKQIPCIVSMLTKELYFYH
  tau cleaved at Asp421 (TauC3 western blot, TauC3 to total tau): did result in increased cleavage of tau as measured by TauC3 western blot
